{"source": "the DeepSol protein solubility set", "data": [{"assay": "soluble on expression in E. coli; label from the status in PepcDB or PDB records", "values": [{"sequence": "MEIVCEDFQKALTKIKLLRENANIIEETVQRSVREIVQNVRESRDEALSFYTKKFDGVEIKDVRVSEEEIKQASMFVESSFLEALQEAKKNIISYHEKQKRQSMFDCTSKGIIRGQIIRPLENIGVYVPGGTASYPSSVLMNVLPAKLAGVKKIVMVTPPRAGGIDPHILVAASLAGVDEIYMIGGAQAIAALAYGTESIPKVDKIVGPGNLYVALAKREVYGIVNIDMIAGPSEIVVIADETGNAKYIAADLLSQAEHDERATAICITTNIELAKEVEKEIERQLETLPRSEIARESINRNGAIFIVPSIDEALQLSNEIAPEHLELHIKEPMNALAYVKHAGSIFLGPYAPEPLGDYLAGPNHVLPTSGTARFFSPLSVDDFVKKSSFLSYTEGALRDVKHHIVELANKEGLHAHARAIQIRFGEEE", "soluble on expression in E. coli": "not soluble"}, {"sequence": "MEIVDTRTPNSKRFISGVTGDWEVIIGMEVHAQIISNSKLFSGASTKFGAEPNNHVSLIDAAMPGMLPVLNQECVRQAVRTGLGLKARINLRSVFDRKNYFYPDLPQGYQISQFRYPIVGEGKIIISIGPDSNGQFEDIEVGIERLHLEQDAGKSMHDQHPTMSFVDLNRSGVALMEIVSKPDMRSADEAKAYMTKLRTIVRYLGTCDGNMDEGSMRADVNVSVRRPGESFGTRCEIKNVNSIRFIGQAIEYEARRQIAILEDGGVIDQETRLFDAAKGETRSMRSKEEAHDYRYFPDPDLLPLEFDQAFVDALAAELPELPDDIKIRFINEMGLTAYDASILVTEKAIANYFEKVAHGRDGKTVANWVINDLLGALNKDNREIEETPVSPDQLGSIIDLIKEGTISGKIAKDLFEIIWHEGGDPRQIVEERNMKQVTDTKAIERAVDEIMANNSDKVAQAKQKPALAGWFVGQVMKTTGGKANPQTVNELVKLKLGID", "soluble on expression in E. coli": "not soluble"}, {"sequence": "MEKATKRNDEECEVQLNIKRNSKHSAWTGELFKIECPVKYCVHRPNVTWCKHNGTIWVPLEVGPQLYTSWEENRSVPVFVLHFKPIHLSDNGSYSCSTNFNSQVINSHSVTIHVRERSQNSS", "soluble on expression in E. coli": "soluble"}, {"sequence": "MEKAYKILSVQENISHKKAKALIDSGLVSIGGKKLMVARKELPKNTHFSVQKVEKPSVIFEDENILALFKPPFIESYDLASFFKGWALLHRLDKETSGVVLLVKENSEFHLKAKKAFKDRAVKKEYLALTQGIIEEEREINAPILTFKTTKAFSKISKKGQEAVTIITPLKIINKKTLLKVGIKTGRTHQIRVHLKHINHPIIGDTLYNNEPSLAKRLMLHAHKIALLGYEFEAIAPKEFEILEHHHHHH", "soluble on expression in E. coli": "soluble"}, {"sequence": "MEKDDATASFSPSFSTYSGDRLVEIAERVCYKEKSDAEFEFSTAATSSSGDGGLVFPVFNKNLISGDVSPEKVIPLKDLFLRERNDQQPPQQTYSSSSDEEEEDDEFDSIPSEIYCPWTPARSTADMSPSGGCRKSKSTGSSSTSTWSTKRWRLRDFLKRSKSDGKQSLKFLNPTNRDDDDESSKSKKKVSVSVTVSAHEKFYLRNKAIKEEDKRKSYLPYKQDLVGLFSNIHRYGKTFPPF", "soluble on expression in E. coli": "not soluble"}, {"sequence": "MEKGAPQNNADEEAKVEVPPPAPKTTSAERAPEKVSAEKAQEQEKSAMGSVPIPPEREKHIKERKTGYEYSIVTINYKPGTKFGLGIKNVFNKSIYVIKVEENSLVSGIFNVADRIIDVDGEPVYDNAKCKGLLVKALKEKKVCTLLIERGITESALKDATNEMNEEHTQSVMAPPDVKSIMRKLEAHNFLRKSPSCESAAAPNPVPSAMTKNKEGKGERKACILEDGHKSVMIRMDNEENRNKLKKVEPKEPPRRLDPKTPPKPAAPEPKPEGK", "soluble on expression in E. coli": "not soluble"}, {"sequence": "MEKHLLISKGCKGWGGPLTITPGQGKKIAYITGGIRPPVVDRLSELTGWPSIDVFKNGEPPAEEIGLMVIDCGGTLRCGLYPKRGIPTINLHPTGKSGPLAEFIHEGIYVSGVTPACIEMVWPQGEGGKLGIVADDLTGATTVGVLLARSGLKTAAFFDTESFARNEVEYPAMVVSSDSRPLPKAEAQHKVSAAVKQLQARGAHYFTKRIDTTLRGGIGFEIDAMLEQLPQETVAVVVPAMPQSRRILVGGYSVIDSVALSRTDVARDVRTPVTESWVPGLLAAQTHHQVGHIALTSVMKGEGQIQQDLQEQQQRGVRVIVVDAITVDDVDAIAGAVVALNWNVLTVDPGPFTERLAVRRGLMREARSSAPASLTADGQRGSILIVAGSATPVTKKQLQYLIANDARVCHIPVDAELLVDRKNAAEIEVNRVVQHARQCVPAQHNALFVFESALTGRLLNLQEEEQRFGLAHGEAAQNINHGLGSIVREVLNCASGEIKGLYMTGGDTMVNVLKELGATGIEMIDYVIPQTDMVRIIGGDYAGLICVGKGGLTGPEDIISIIVDRIYQEAQ", "soluble on expression in E. coli": "not soluble"}, {"sequence": "MEKIERLRSAFDEAGIDGILLTNEHSRRYMANFTGTAGVVLISKKRAQFITDFRYVEQASKQAVGYEIVQHAGLIIDEVAKQVKELGIQKLGFEQDTLTYSSYSAHKEAIDAEFIPTSGLVEKLRLIKTDSEIKILKEAAQIADAAFEHILSFIRPGVSEIEVSNELEFFMRKQGATSSSFDIIVASGLRSALPHGVASEKVIETGDFVTLDFGAYYKGYCSDITRTIAVGEPSDKLKEIYNIVLEAQLRGVNGIKAGLTGREADALTRDYITEKGYGEYFGHSTGHGIGLEIHEAPGLAFRSDTVLEPGMAVTVEPGIYIPGIGGVRIEDDIIVTSEGNEVITKSPKELIIL", "soluble on expression in E. coli": "not soluble"}, {"sequence": "MEKKANHGDDVQESVPIIHSQVVKIKREFEKIQHPSLKQPEMPLVFREIMGPRRSRSPLGLGERERSIPVGN", "soluble on expression in E. coli": "not soluble"}, {"sequence": "MEKKFIAIYDLESDKIEIIDDKFRFKCIEDCGKCCIYNEIPLREEDIQKILSLGYEEEYFVDYTKMFYRGPKFLGYGMKKRPFDDACVFLDPETKKCRIYEHRPVACRIYPFVLVKHEKKLEIYVKEDPRCPGINSPDGEGIVEIIKKYFIPIIEELKGEINGNRRSRQEDFISFNRRLETVVAAALEHHHHHH", "soluble on expression in E. coli": "not soluble"}, {"sequence": "MEKKRVVITGLGAVTPVGTDVETAWENIKKGVSGIGRLTRIDPELFPAKVAAEINDFEVEKYIDKKEARRMDRFTQYAVAAAKMAVADAKLEITEENGPRIGVWIGSGIGGMETYEEQFKIFTEKGPRRVSPFFVPMMIPDMAAGQVSIATGAKGINTCSVTACASGANSIGDAFKAIQRGDADAMITGGAEAPLTSMAFAGFSSAKALTFNEDPATACRPFDKNRSGFVMGEGSGILILEELEHALARGAHIYAEIAGYGATGDAFHITMPAPGGEGGVRAMRQALADAGLQPEDIDYINAHGTSTDANEKYETMAIKETFGEHAYKVAISSTKSMTGHLLGAAGAVEAIFSIKSITDGVIPPTINYETPDPECDLDYVPNNARHQEVNAVLSNSLGFGGHNAVLVFKSYK", "soluble on expression in E. coli": "not soluble"}, {"sequence": "MEKLNRAADDSMINTLSEKSNEFSFYQAVLLLEKHYQFEPNSNFVAVGENKYFHQERIEFSVSPNLCFPKSDMEFIVHMERNGQQYSRVETNFLGLHGSSSPLPVSYTEKLTGREPDDNPVKDFFDFFHNRYTSLLYRVWKKYRYHVQYQSGATDAFSGRMLHLAGLSGVMQDCGVAELDRAKVLSYVNQLSTRTRSPKLISGIVSHYFSLPSVRIEEWVYRRVEIADSQRNKLNRANCILGQSFHLGQSIADLNGKFNLCIDDIDFETFKQFSYEGELHKTLVGLMRFILRDPMSWDLKLTVNLDSIPNNQLGNGEGNNLGQTFWLGNPTDEDVKIRVIGSI", "soluble on expression in E. coli": "not soluble"}, {"sequence": "MEKNTIILGIETSCDETAVAVVKNGTEIIANVVASQIESHKRFGGVVPEIASRHHVEEITVVLEEALKEANITFDDIDAIAVTEGPGLVGALLIGVNAAKAVAFAHDIPLVGVHHIAGHIYANRLVKEVQFPLLSLVVSGGHTELVYMKEHGSFEVIGETRDDAAGEAYDKVARTLSMPYPGGPHIDRLAHEGKPTIDLPRAWLEPDSYDFSFSGLKSAVINTVHNAKQRGIEIAPEDLAASFQESVIDVLVTKASRAADAYNVKQVLLAGGVAANKGLRARLETEFAQKENVELIIPPLSLCTDNAAMIAAAGTIAYEQGKRATLALNANPGLDIEA", "soluble on expression in E. coli": "not soluble"}, {"sequence": "MEKRIVCLAGDGVGPEVMESAKEVLHMVERLYGHHFHLQDEHFGGVAIDLTGQPLPQRTLAACLASDAVLLGAVGGPRWDGAKERPEKGLLALRKGLGVFANVRPVTVESATAHLSPLKKADEIDFVVVRELTGGIYFSYPKERTDEVATDTLTYHRHEIERIVSCAFQLASKRKKKVTSIDKANVLESSKLWRIVTEEVALRYPDVELEHILVDAAAMELIRNPGRFDVIVTENLFGDILSDEASVLAGSLGMLPSASHAEKGPSLYEPIHGSAPDIAGKNKANPIAMMRSVAMMLGQSFGLTREGCAIEEAISAVLKSGKCTADIGGTETTTSFTKAVMQEMEEQALVGRGR", "soluble on expression in E. coli": "not soluble"}, {"sequence": "MEKSLVDTVYALKDEVQELRQDNKKMKKSLEEEQRARKDLEKLVRKVLKNMNDPAWDETNL", "soluble on expression in E. coli": "soluble"}, {"sequence": "MEKYMSLLTRIEEMMQSTSYQEGDRLPSIRQLSARYQVSKSTVIRALQELEKRHLIYSVPKSGYYIVKKSGKSKSGQPGPIDFATSAPDPDVFPYLDFQHCINKAIDTYKNDLFIYGTPKGLPSLIRVLRKLLATQQVFADERHIFITSGVQQALSLLCAMPFPNGKEKIAIEQPGYHLMVEQLETLGIPAIGVKRTEEGLDIAKVERLFQTESIKFFYTMPRFHNPLGCSLSERDKQELVRLAEAYDVYLVEDDYLGDLEENKKADPLYAYDLSSHVIYLKSFSKMMFPGLRVGAAVLPEALTDTFYAYKKLNDIDCSMISQAALEIYLKSGMYGRHKEKIRDSYKERSLRLHQAIRTHRQLGSGRFTFSSGQAPCMHTHLVLPQDLPASRVIHRLEKQGVLLEAIDRHYLSDYPKENLLKINISNVKTEDIERGVKLLMSHL", "soluble on expression in E. coli": "not soluble"}, {"sequence": "MELAKKTGATVIGSAEMADYLSSYHGVENVHGMNIGGKANFDFGSVKFVQAFHSSSFTHENGIPVYLGMPMGIVFEVEGKTIYHTGDTGLFSDMSLIAKRHPVDVCFVPIGDNFTMGIDDASYAINEFIKPKISVPIHYDTFPLIEQDPQQFKDAVNVGDVQILKPGESVQFLEHHHHHH", "soluble on expression in E. coli": "not soluble"}, {"sequence": "MELELDDDVFFADISKQLNLLITDEDEQNPISLSSSVSFQGLFRGNYQTSATPYMMYNEQINYNVIRESKGTGVFIPRSSQPRRKHNHHPHQKKQGRFIGSFIPKQQFPHHGHDNNLTTLNNNNQESITFHHASTNPRRTYRDAASLFT", "soluble on expression in E. coli": "not soluble"}, {"sequence": "MELESKMGAFCGAAQSNYDDACVAFSAANKCAPIERETGVKKLADKLNPEQPHKLSVMDVKLITKASGDYTIVNSLLYSLDMVAVAVDKNGESETFVKRTLDNSIYAGELAQEALKHAGQKRMTGRSKNTIVKKAHTAIGNLVLLINDMEGRTPNASSFLSMGMDLLSSGVTVPGLA", "soluble on expression in E. coli": "not soluble"}, {"sequence": "MELFLTGVVLKPKGLKGELKVKPVTDFPESFLTRREYYIGKTPEDAVLRKVQSARFHQGFAWLVFEGAGSREGAEALVGCGLYVTRDALVAMPDDRAYIHELIGLDVFDETEGRVGKISDVLQMPAHDVYEVDTGDRKVLIPAVEDFITETDLEKGMVRLKRFKEFLLEHHHHHH", "soluble on expression in E. coli": "soluble"}, {"sequence": "MELIRWAIELGESVHGNTYEELMPLLDYYYDRDHLKAYCIANLLLNMDVLDEDRERIELRRCIAAYYAGLYKVARKHANELVLKHPDVDLYKNNLRLMEVYLNKEYDYCLFICPKTYGSFIDIARALKWRLEQEGNTVIISETILENVKNTVVFGAHTYAYNPNLLPKDAIVYNLEQLYEGSPYAHPLYLILLKDRVIWDYSKQNIEWLKQKGVGKEIKHVEMNYAPTLEIKKDAFEDEIIEDIDILFIGALNPRRQAIFDHLKAIAPNLNIVFKNNAWGIVRNELIARAKIILNIHFYLSGILETPRVSYAVANKKFIISENSNPEDEVEWPGIVFTPYEKIIENVMKYIELPEERKRLAEKAYNHFEANESLGTLSMRDETK", "soluble on expression in E. coli": "not soluble"}]}]}
